This assay concerns the target monomeric recombinant human ASC (Apoptosis-associated speck-like protein containing a caspase recruitment … (human, UniProt Q9ULZ3 1-195)). Kind of assay: limited proteolysis-coupled mass spectrometry.

Sequence of monomeric recombinant human ASC (Apoptosis-associated speck-like protein containing a caspase recruitment … (Q9ULZ3 whole entry): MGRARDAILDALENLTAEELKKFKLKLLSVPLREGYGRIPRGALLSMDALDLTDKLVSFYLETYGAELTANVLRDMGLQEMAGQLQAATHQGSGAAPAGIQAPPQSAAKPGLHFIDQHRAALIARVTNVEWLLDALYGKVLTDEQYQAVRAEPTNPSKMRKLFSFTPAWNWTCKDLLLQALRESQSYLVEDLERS

B1: monomeric recombinant human SAA1 (serum amyloid A1) (natural protein, UniProt P0DJI8 19-122, looked up)
chain: RSFFSFLGEAFDGARDMWRAYSDMREANYIGSDKYFHARGNYDAAKRGPGGAWAAEVITDARENIQRFFGHGAEDSLADQAANEWGRSGKDPNHFRPAGLPEKY
As for B1, the binding result is “binds”.

The record behind these values is doi:10.1101/2021.05.01.442282 (bioRxiv, 2021).
